Laboratory results: patent US20140179593A1 (published 2014)
Positions of bridges follow the written chain, without caps; N, C: chain ends. Non-standard residues stand in square brackets, D forms with d. *: point of attachment. S5 = C=CCCC[C@](C)(N)C(=O)O; Nle = CCCC[C@H](N)C(=O)O; For = O=C*

Legend:
[1] = target: T1, hDcn1^P (PONY domain of human Dcn1 / DCUN1D1 / SCCRO, residues 62 to 259) (Homo sapiens, UniProt Q96GG9 62-259); assay: ITC, peptide titrated into hDcn1^P
T1 construct: NEDD8 co-E3; Expressed as a GST fusion in E. coli; GST was removed with TEV protease; also called DCUN1D1^P
T1 sequence (Q96GG9 62-259): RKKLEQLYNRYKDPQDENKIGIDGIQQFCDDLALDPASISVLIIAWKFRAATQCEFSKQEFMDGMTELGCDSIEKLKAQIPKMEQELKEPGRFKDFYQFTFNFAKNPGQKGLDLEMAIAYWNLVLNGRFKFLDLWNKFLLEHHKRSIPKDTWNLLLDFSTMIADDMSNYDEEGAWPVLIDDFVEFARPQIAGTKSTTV
Protocol: (§1) The formylated peptides lack the methyl portion of an acetyl, but retain the amide and are uncharged.
(§2) Protein samples were buffer matched by desalting over a NAP-5 column (GE Healthcare) into 50 mM Hepes, 125 mM NaCl, 1 mM BME, pH 7.0 (ITC buffer). Peptides were dissolved by weight to a final concentration of 10 mM in ITC buffer and diluted further in ITC buffer as required for the experiments. […] The peptide ligands (4 mM) were constantly injected (1.5 μl). The interval time between each injection was 3 minutes and the duration of each injection was 3 seconds. […] Peptide ligands (250 μM) were constantly injected (2.5 μl). The interval time between each injection was three minutes and the duration of each injection was 5 seconds. […] The interval time between each injection was 3 minutes and the duration of each injection was 5 seconds. Obtained spectra were evaluated using Origin (V 7.0) to determine heats of binding and Kd values.

[2] = target: T2, yDcn1^P (potentiating neddylation (PONY) domain of S. cerevisiae Dcn1) (Saccharomyces cerevisiae, UniProt Q12395 70-269); assay: ITC; against Acetyl-yUbc12^1-24
T2 construct: NEDD8 co-E3; Expressed in E. coli
T2 sequence: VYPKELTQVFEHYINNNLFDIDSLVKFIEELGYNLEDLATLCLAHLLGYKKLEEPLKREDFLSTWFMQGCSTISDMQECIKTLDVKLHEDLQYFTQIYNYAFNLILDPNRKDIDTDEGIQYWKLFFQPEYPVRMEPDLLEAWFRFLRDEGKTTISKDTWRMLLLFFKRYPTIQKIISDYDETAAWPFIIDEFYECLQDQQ
Protocol: as §2

[3] = target: T3, hDcn1^P (residues 62 to the C-terminal residue 259 of hDcn1, aka SCCRO or DCUN1D1) (Homo sapiens, UniProt Q96GG9 62-259); assay: ITC, peptide titrated into Dcn1^P; against the unacetylated peptide
T3 construct: Expressed as a GST fusion in E. coli; GST released by TEV protease; also called DCUN1D1^P; PONY domain of hDcn1
T3 sequence (Q96GG9 62-259): as the sequence (Q96GG9 62-259) above
Protocol: (§3) To gain insights into mechanistic roles of Ubc12 N-terminal acetylation, isothermal titration calorimetry (ITC) was used to quantify interactions with peptides corresponding to the N-termini of yeast or human Ubc12.
as §2

[4] = target: T3, hDcn1^P (residues 62 to the C-terminal …); assay: crystal structure
Protocol: The crystals grew as multiple clusters. Single crystals of the complex were obtained by streak-seeding into 17% PEG1500, 0.1 M MIB pH 4.0. The crystals were soaked in step gradients for 1-5 minutes, with sequential soaks containing well solution supplemented with 10%, 20%, and 30% ethylene glycol prior to flash-freezing in liquid nitrogen. Reflection data were collected at beamline 8.2.2 at the Advanced Light Source.

[5] = target: T3, hDcn1^P (residues 62 to the C-terminal …); assay: ITC; against Acetyl-hUbc12^1-26
Protocol: as §1, §2

[6] = target: T4, hDcn4^P (PONY domain of human DCUN1D4) (Homo sapiens, UniProt Q92564 102-292); assay: ITC, two values in the cell, first value
T4 sequence: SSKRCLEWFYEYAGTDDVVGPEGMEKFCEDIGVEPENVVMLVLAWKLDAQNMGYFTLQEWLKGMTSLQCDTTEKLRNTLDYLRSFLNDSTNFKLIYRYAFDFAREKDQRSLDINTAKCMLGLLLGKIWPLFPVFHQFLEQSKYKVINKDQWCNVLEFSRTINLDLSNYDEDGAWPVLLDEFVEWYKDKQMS
Protocol: as §2

[7] = target: T4, hDcn4^P (PONY domain of human DCUN1D4); assay: ITC, two values in the cell, second value
Protocol: as §2

[8] = target: T5, hDcn1^P (potentiating neddylation / PONY domain of human Dcn1, DCUN1D1) (Homo sapiens, UniProt Q96GG9 62-259); assay: ITC, peptide titrated into Dcn PONY domain
T5 construct: also called DCUN1D1^P; SCCRO PONY domain
T5 sequence (Q96GG9 62-259): as the sequence (Q96GG9 62-259) above
Protocol: as §2

[9] = target: hDcn2^P (PONY domain of human DCUN1D2) (Homo sapiens, UniProt Q6PH85 62-259); assay: ITC, peptide titrated into Dcn PONY domain
Chain of hDcn2^P (PONY domain of human DCUN1D2) (Q6PH85 62-259 limits assumed): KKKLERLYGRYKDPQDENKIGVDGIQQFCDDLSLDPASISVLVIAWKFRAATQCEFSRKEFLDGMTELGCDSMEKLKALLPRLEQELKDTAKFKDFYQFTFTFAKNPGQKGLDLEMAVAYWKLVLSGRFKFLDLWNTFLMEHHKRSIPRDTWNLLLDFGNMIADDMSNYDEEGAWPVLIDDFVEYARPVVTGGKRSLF
Protocol: as §2

[10] = target: T6, hDcn3^P (PONY domain of human DCUN1D3) (Homo sapiens, UniProt Q8IWE4 86-304); assay: ITC, peptide titrated into Dcn PONY domain
T6 sequence: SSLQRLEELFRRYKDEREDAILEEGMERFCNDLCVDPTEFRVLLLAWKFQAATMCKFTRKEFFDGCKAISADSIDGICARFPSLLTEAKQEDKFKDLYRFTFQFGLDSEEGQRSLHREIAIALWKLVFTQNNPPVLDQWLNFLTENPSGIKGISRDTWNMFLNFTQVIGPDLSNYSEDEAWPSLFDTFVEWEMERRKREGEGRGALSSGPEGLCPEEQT
Protocol: as §2

[11] = target: T7, hDcn5^P (PONY domain of human DCUN1D5) (Homo sapiens, UniProt Q9BTE7 47-237); assay: ITC, peptide titrated into Dcn PONY domain
T7 sequence: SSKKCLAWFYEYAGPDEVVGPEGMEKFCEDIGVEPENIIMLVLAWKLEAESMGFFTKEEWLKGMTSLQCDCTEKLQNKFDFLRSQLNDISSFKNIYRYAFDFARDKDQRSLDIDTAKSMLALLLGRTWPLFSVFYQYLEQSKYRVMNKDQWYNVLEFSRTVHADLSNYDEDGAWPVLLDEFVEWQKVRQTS
Protocol: as §2

[12] = target: T2, yDcn1^P (potentiating neddylation …); assay: ITC, peptide titrated into Dcn1^P; against the unacetylated peptide
Protocol: as §3, §2

[13] = target: T8, yDcn1^P (potentiating neddylation / PONY domain of Saccharomyces cerevisiae Dcn1) (Saccharomyces cerevisiae, UniProt Q12395 70-269); assay: ITC, peptide titrated into yDcn1^P
T8 construct: NEDD8 co-E3; Expressed in E. coli
T8 sequence: T2 sequence
Protocol: as §1, §2

[14] = target: T4, hDcn4^P (PONY domain of human DCUN1D4); assay: ITC, peptide titrated into Dcn PONY domain
Protocol: as §2

B1: Formyl-hUbc12^1-26 peptide (peptide)
peptide: For-MIKLFSLKQQKKEEESAGGTKGSSKK-NH2
SMILES: CC[C@H](C)[C@H](NC(=O)[C@H](CCSC)NC=O)C(=O)N[C@@H](CCCCN)C(=O)N[C@@H](CC(C)C)C(=O)N[C@@H](Cc1ccccc1)C(=O)N[C@@H](CO)C(=O)N[C@@H](CC(C)C)C(=O)N[C@@H](CCCCN)C(=O)N[C@@H](CCC(N)=O)C(=O)N[C@@H](CCC(N)=O)C(=O)N[C@@H](CCCCN)C(=O)N[C@@H](CCCCN)C(=O)N[C@@H](CCC(=O)O)C(=O)N[C@@H](CCC(=O)O)C(=O)N[C@@H](CCC(=O)O)C(=O)N[C@@H](CO)C(=O)N[C@@H](C)C(=O)NCC(=O)NCC(=O)N[C@H](C(=O)N[C@@H](CCCCN)C(=O)NCC(=O)N[C@@H](CO)C(=O)N[C@@H](CO)C(=O)N[C@@H](CCCCN)C(=O)N[C@@H](CCCCN)C(N)=O)[C@@H](C)O
notes: Synthetic peptide; also called hUbc12^Formyl-1-26
Kd [1]: 9710 nM | ΔH [1]: -4.89 kcal/mol | ΔS [1]: 5.79 cal/mol/deg

B2: Formyl-yUbc12^1-24 (peptide)
peptide: For-MLKLRQLQKKKQKENENSSSIQPN-NH2
SMILES: CC[C@H](C)[C@H](NC(=O)[C@H](CO)NC(=O)[C@H](CO)NC(=O)[C@H](CO)NC(=O)[C@H](CC(N)=O)NC(=O)[C@H](CCC(=O)O)NC(=O)[C@H](CC(N)=O)NC(=O)[C@H](CCC(=O)O)NC(=O)[C@H](CCCCN)NC(=O)[C@H](CCC(N)=O)NC(=O)[C@H](CCCCN)NC(=O)[C@H](CCCCN)NC(=O)[C@H](CCCCN)NC(=O)[C@H](CCC(N)=O)NC(=O)[C@H](CC(C)C)NC(=O)[C@H](CCC(N)=O)NC(=O)[C@H](CCCNC(=N)N)NC(=O)[C@H](CC(C)C)NC(=O)[C@H](CCCCN)NC(=O)[C@H](CC(C)C)NC(=O)[C@H](CCSC)NC=O)C(=O)N[C@@H](CCC(N)=O)C(=O)N1CCC[C@H]1C(=O)N[C@@H](CC(N)=O)C(N)=O
notes: Synthetic peptide; also called N-terminally formylated yeast Ubc12 peptide
fold change of Kd against the acetylated peptide [2]: ~17 fold

B3: Acetyl-hUbc12^1-26 (peptide)
peptide: Ac-MIKLFSLKQQKKEEESAGGTKGSSKK-NH2
notes: Synthetic peptide; also called hUbc12Ac1-26
increase in affinity by N-terminal acetylation [3]: ~100 fold

B4: Acetyl-hUbc12^1-15 (peptide)
peptide: Ac-MIKLFSLKQQKKEEE-NH2
notes: Peptide of the hCul1^WHB-hDcn1^P-Acetyl-hUbc12^1-15 crystal structure; also called N-terminally acetylated human Ubc12^1-15
binding result [4]: binds

B5: Formyl-hUbc12^1-26 (peptide)
peptide: For-MIKLFSLKQQKKEEESAGGTKGSSKK-NH2
SMILES: CC[C@H](C)[C@H](NC(=O)[C@H](CCSC)NC=O)C(=O)N[C@@H](CCCCN)C(=O)N[C@@H](CC(C)C)C(=O)N[C@@H](Cc1ccccc1)C(=O)N[C@@H](CO)C(=O)N[C@@H](CC(C)C)C(=O)N[C@@H](CCCCN)C(=O)N[C@@H](CCC(N)=O)C(=O)N[C@@H](CCC(N)=O)C(=O)N[C@@H](CCCCN)C(=O)N[C@@H](CCCCN)C(=O)N[C@@H](CCC(=O)O)C(=O)N[C@@H](CCC(=O)O)C(=O)N[C@@H](CCC(=O)O)C(=O)N[C@@H](CO)C(=O)N[C@@H](C)C(=O)NCC(=O)NCC(=O)N[C@H](C(=O)N[C@@H](CCCCN)C(=O)NCC(=O)N[C@@H](CO)C(=O)N[C@@H](CO)C(=O)N[C@@H](CCCCN)C(=O)N[C@@H](CCCCN)C(N)=O)[C@@H](C)O
notes: Synthetic peptide; also called N-terminally formylated human Ubc12 peptide; hUbc12^Formyl-1-26
fold change of Kd against the acetylated peptide [5]: ~9 fold

B6: yUbc12^Ac1-24 (peptide)
peptide: Ac-MLKLRQLQKKKQKENENSSSIQPN-NH2
notes: Synthetic peptide of the N-terminus of yeast Ubc12; also called Acetyl-yUbc12^1-24
Kd [6]: 1200 nM | Kd [7]: 13000 nM | Kd [8]: 311 nM | Kd [9]: 204 nM | Kd [10]: 3400 nM | Kd [11]: 2400 nM

B7: Acetyl-yUbc12^1-24 (peptide)
peptide: Ac-MLKLRQLQKKKQKENENSSSIQPN-NH2
notes: Synthetic peptide; also called yUbc12Ac1-24; N-terminally acetylated S. cerevisiae Ubc12^1-24
increase in affinity by N-terminal acetylation [12]: ~100 fold

B8: Formyl-yUbc12^1-24 peptide (peptide)
peptide: For-MLKLRQLQKKKQKENENSSSIQPN-NH2
SMILES: CC[C@H](C)[C@H](NC(=O)[C@H](CO)NC(=O)[C@H](CO)NC(=O)[C@H](CO)NC(=O)[C@H](CC(N)=O)NC(=O)[C@H](CCC(=O)O)NC(=O)[C@H](CC(N)=O)NC(=O)[C@H](CCC(=O)O)NC(=O)[C@H](CCCCN)NC(=O)[C@H](CCC(N)=O)NC(=O)[C@H](CCCCN)NC(=O)[C@H](CCCCN)NC(=O)[C@H](CCCCN)NC(=O)[C@H](CCC(N)=O)NC(=O)[C@H](CC(C)C)NC(=O)[C@H](CCC(N)=O)NC(=O)[C@H](CCCNC(=N)N)NC(=O)[C@H](CC(C)C)NC(=O)[C@H](CCCCN)NC(=O)[C@H](CC(C)C)NC(=O)[C@H](CCSC)NC=O)C(=O)N[C@@H](CCC(N)=O)C(=O)N1CCC[C@H]1C(=O)N[C@@H](CC(N)=O)C(N)=O
notes: Synthetic peptide
Kd [13]: 7460 nM | ΔH [13]: 2.82 kcal/mol | ΔS [13]: 33.4 cal/mol/deg

B9: hUbc12^Ac1-26 (peptide)
peptide: Ac-MIKLFSLKQQKKEEESAGGTKGSSKK-NH2
notes: Synthetic peptide of the N-terminus of human Ubc12; also called Acetyl-hUbc12^1-26
Kd [8]: 1500 nM | Kd [9]: 735 nM | Kd [10]: 10800 nM | Kd [14]: 10000 nM | Kd [11]: 8600 nM

B10: yUbc12^Ac1-12 (NorLeu) 6, 10 (peptide)
peptide: Ac-[Nle]LKLR[S5]LQK[S5]KQ-NH2
modifications: staple 6-10
SMILES: CCCC[C@H](NC(C)=O)C(=O)N[C@@H](CC(C)C)C(=O)N[C@@H](CCCCN)C(=O)N[C@@H](CC(C)C)C(=O)N[C@@H](CCCNC(=N)N)C(=O)N[C@@]1(C)CCCC=CCCC[C@@](C)(C(=O)N[C@@H](CCCCN)C(=O)N[C@@H](CCC(N)=O)C(N)=O)NC(=O)[C@H](CCCCN)NC(=O)[C@H](CCC(N)=O)NC(=O)[C@H](CC(C)C)NC1=O
Kd [8]: 68 nM | Kd [9]: 75 nM | Kd [10]: 1760 nM | Kd [14]: 4300 nM | Kd [11]: 4780 nM
